# Reference: US20230381336A1 (SHANGHAI MIRACOGEN, published 2023)
# T1: human Claudin 18.1 (human, UniProt P56856 1-261)
# T1 construct: whole, on cells; Splice variant used as specificity control
# T1 sequence (looked up): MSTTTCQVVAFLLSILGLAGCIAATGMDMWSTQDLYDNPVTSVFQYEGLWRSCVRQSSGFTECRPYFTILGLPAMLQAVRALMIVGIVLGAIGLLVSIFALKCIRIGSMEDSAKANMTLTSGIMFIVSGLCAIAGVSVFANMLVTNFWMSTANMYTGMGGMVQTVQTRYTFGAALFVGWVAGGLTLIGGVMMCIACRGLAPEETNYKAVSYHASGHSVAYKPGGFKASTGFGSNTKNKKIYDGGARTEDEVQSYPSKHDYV
# T2: human Claudin 18.2 (human, UniProt P56856-2 1-261)
# T2 sequence (looked up): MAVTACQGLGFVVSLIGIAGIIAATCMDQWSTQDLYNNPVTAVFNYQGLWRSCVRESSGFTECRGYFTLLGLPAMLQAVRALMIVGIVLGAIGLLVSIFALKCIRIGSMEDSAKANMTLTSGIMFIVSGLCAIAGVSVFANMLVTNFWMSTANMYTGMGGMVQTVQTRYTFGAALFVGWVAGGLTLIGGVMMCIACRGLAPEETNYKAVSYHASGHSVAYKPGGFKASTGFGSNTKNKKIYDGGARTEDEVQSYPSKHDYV
# How the values were obtained:
# human Claudin 18.1 = molecular target: T1, human Claudin 18.1; test: flow cytometry (iQue) on HEK293 cells stably expressing human Claudin 18.1
# Protocol: The cells were gently tapped, and 50 μL of serially diluted antibodies were added to each well (antibody concentration starting from 100 nM, 5-fold dilution for 8 gradients), and incubated at 4° C. for 1 hour. After the incubation, 140μL of 0.5% BSA was added to each well to wash 3 times, and 30 μL/well of secondary antibody AlexaFluro647 anti-human IgG (Jackson ImmunoResearch, Cat: 109-606-170) was added, and incubated at 4° C. for 40 minutes. After the incubation, 140 μL of 0.5% BSA was added to each well to wash 3 times, and finally each well was resuspended in 50 μL of PBS for detection by flow cytometry (iQue Screener).
# human Claudin 18.2 = molecular target: T2, human Claudin 18.2; test: cell-based or functional assay
binding result (human Claudin 18.1),Binder,"Mean IC50 of cell killing, LT-1C8 cells (KATO stable cell line, medium Claudin 18.2 expression), 96 h, CCK-8 or Presto-Blue (human Claudin 18.2) [mg/L]","Mean IC50 of cell killing, LT-M11 cells (KATO stable cell line, high Claudin 18.2 expression), 96 h, CCK-8 or Presto-Blue (human Claudin 18.2) [mg/L]","Mean IC50 of cell killing, row without a cell line label printed under LT-M11 (taken as a second LT-M11 series) (human Claudin 18.2) [mg/L]"
no binding,"18D10 chimera (antibody, V domains shown, also called Clone 18D10; 18D10 mVH / 18D10 mVL) VH: DVQLQESGPGLVKPSQSLSLTCTVTGYSITSNYAWNWIRQFPGNKLEWMGYINYSGNTNYNPSLKSRISITRDTSKNQFFLQLNSVTAEDTATYYCATSYYGNSFIYWGQGTLVTVSA VL: DIVMTQSPSSLTVTAGEKVTMSCKSSQSLLNSGNQKNYLTWYQQKPGQPPKLLIYWASTRESGVPDRFTGSGSGTDFTLTISSVQAEDLAVYYCQNAYSFPWTFGGGTKLEIK",,,
no binding,"18A9 chimera (antibody, V domains shown, also called Clone 18A9; 18A9 mVH / 18A9 mVL) VH: QVQLQQSGREVVRPGTSVKVSCKPSGYAFTNYLIDWVKQRPGQGLEWIGGINPGSGDTVYNEKFKAKATLTADKSSMTANMQLSSLTSDDSAVYFCARRVRGNSFDSWGQGTLVTVSA VL: DIVMSQSPSSLTVTAGEKVTMSCKSSQSLLNSGNQKNYLTWYQQKPGQPPKLLIYWASTRESGVPDRFTGSGSGKDFTLTISSVQAEDLALYYCQNNYFYPLTFGAGTKLELK",,,
,"CM311-18D10-VH3/VL2-ADC (other, MC-vc-PAB-MMAE coupled to free cysteine thiols of the DTT-reduced antibody; average DAR 3.5 per antibody; sites not stated) VH: QVQLQESGPGLVKPSETLSLTCTVSGGSISSNYAWNWIRQPPGKGLEWIGYINYSGNTNYNPSLKSRVTISRDTSKNQFSLKLSSVTAADTAVYYCATSYYGNSFIYWGQGTLVTVSS VL: not shown",0.52,0.2,0.132
,"CM311-18D10-VH6/VL2-ADC (other, MC-vc-PAB-MMAE coupled to free cysteine thiols of the DTT-reduced antibody; average DAR 3.4 per antibody; sites not stated) VH: QVQLQESGPGLVKPSETLSLTCTVSGGSISSNYAWNWIRQPPGKGLEWIGYIYYSGNTNYNPSLKSRVTISRDTSKNQFSLKLSSVTAADTAVYYCATSYYGNSFIYWGQGTLVTVSS VL: not shown",0.615,0.35,0.147
,"CM311-18A9-VH7/VL2-ADC (other, MC-vc-PAB-MMAE coupled to free cysteine thiols of the DTT-reduced antibody; average DAR 3.0 per antibody; sites not stated) VH: QVQLVQSGAEVKKPGASVKVSCKPSGYTFTNYLIDWVRQAPGQGLEWMGGINPGSGDTVYNEKFQGRVTLTADTSTSTVYMELSSLRSEDTAVYFCARRVRGNSFDSWGQGTLVTVSS VL: not shown",0.111,0.155,0.0512
